Assay results from the Immune Epitope Database (IEDB).

How the values were obtained:
HLA-A*02:01 = test: IEDB peptide-MHC binding, purified MHC/competitive/radioactivity; filed as Kd, often an IC50 or EC50 that approximates it; ≥ and ≤ were set here for values at or beyond the usual limits of such assays
HLA-A*02:17 = test: as above
HLA-A*02:06 = test: as above
HLA-A*02:03 = test: as above
HLA-B*15:03 = test: as above
HLA-B*15:01 = test: as above
HLA-A*32:01 = test: as above
HLA-A*30:01 = test: as above; settings: source organism: Vaccinia virus WR
HLA-B*08:01 = test: as above; settings: source organism: Vaccinia virus WR
HLA-B*07:02 = test: as above
HLA-B*53:01 = test: as above
HLA-B*44:03 = test: as above; settings: source organism: Murray valley encephalitis virus (strain MVE-1-51)
HLA-B*18:01 = test: IEDB peptide-MHC binding, purified MHC/direct/fluorescence; filed as Kd, often an IC50 or EC50 that approximates it; ≥ and ≤ were set here for values at or beyond the usual limits of such assays
HLA-A*02:02 = test: IEDB peptide-MHC binding, purified MHC/competitive/radioactivity; filed as Kd, often an IC50 or EC50 that approximates it; ≥ and ≤ were set here for values at or beyond the usual limits of such assays
HLA-A*68:02 = test: as above
HLA-B*51:01 = test: as above; settings: source organism: Dengue virus 1 Brazil/97-11/1997
HLA-B*35:01 = test: as above
HLA-B*44:02 = test: IEDB peptide-MHC binding, purified MHC/direct/fluorescence; filed as Kd, often an IC50 or EC50 that approximates it; ≥ and ≤ were set here for values at or beyond the usual limits of such assays; settings: source organism: dengue virus type 1
HLA-B*48:01 = test: as above; settings: source organism: West Nile virus
[1] = source organism: Dengue virus 4 Philippines/H241/1956
[2] = source organism: Vaccinia virus WR
[3] = source organism: Dengue virus 2 Jamaica/1409/1983
[4] = source organism: Trypanosoma cruzi
[5] = source organism: Lassa virus Josiah
[6] = source organism: Dengue virus 1 Brazil/97-11/1997
[7] = source organism: Dengue virus 3 China/80-2/1980
[8] = source organism: Vaccinia virus Copenhagen

KQITNELNYV
Kd (HLA-A*02:01; [1]): 28.8 nM
Kd (HLA-A*02:17; [1]): 642 nM
Kd (HLA-A*02:06; [1]): 13.5 nM
Kd (HLA-A*02:03; [1]): 23.4 nM

KQPEGVILF
Kd (HLA-B*15:03; [2]): 3.65 nM

KSHAAYIDY
Kd (HLA-B*15:01; [2]): 1.84 nM
Kd (HLA-B*15:03; [2]): 1.67 nM
Kd (HLA-A*32:01; [2]): 875 nM
Kd (HLA-A*30:01): 12 nM
Kd (HLA-B*08:01): ≥ 77.7 µM

KVLNPYMPSV
Kd (HLA-A*02:01; [3]): 8.47 nM
Kd (HLA-A*02:17; [3]): 26.4 nM
Kd (HLA-A*02:06; [3]): 5.56 nM

LAHYIGTSL
Kd (HLA-B*07:02; source organism: Dengue virus 3 Martinique/1243/1999): 20 nM

LALKEFKEF
Kd (HLA-B*53:01; [3]): 1840 nM

LEFEALGFL
Kd (HLA-B*44:03): 4.97 µM
Kd (HLA-B*18:01; source organism: Alkhumra hemorrhagic fever virus): 2.8 nM

LLGLCGFSAL
Kd (HLA-A*02:01; [4]): 365 nM
Kd (HLA-A*02:06; [4]): 629 nM
Kd (HLA-A*02:02; [4]): 10.4 nM
Kd (HLA-A*68:02; [4]): ≥ 125000 nM
Kd (HLA-A*02:03; [4]): 14.1 nM

LMSIISTFHL
Kd (HLA-A*02:06; [5]): 411 nM
Kd (HLA-A*02:02; [5]): 100 nM
Kd (HLA-A*68:02; [5]): 361 nM
Kd (HLA-A*02:03; [5]): 122 nM

LSIFFYSSF
Kd (HLA-B*15:01; [2]): 17.3 nM
Kd (HLA-B*15:03; [2]): 0.218 nM
Kd (HLA-A*32:01; [2]): 129 nM
Kd (HLA-A*30:01): 131 nM

MATYGWNLV
Kd (HLA-B*51:01): 1250 nM
Kd (HLA-A*68:02; [6]): 20.1 nM

MCIKYTACM
Kd (HLA-B*15:01; [2]): 954 nM
Kd (HLA-B*15:03; [2]): 51.9 nM
Kd (HLA-A*32:01; [2]): 16200 nM
Kd (HLA-A*30:01): ≥ 26600 nM
Kd (HLA-B*08:01): 0.00775 µM

MMATIGIALL
Kd (HLA-B*15:01; [3]): 15 nM
Kd (HLA-A*02:01; [3]): 9.45 nM
Kd (HLA-A*02:17; [3]): 305 nM
Kd (HLA-A*02:03; [3]): 0.94 nM

NPRLCTREE
Kd (HLA-B*07:02; [1]): 213 nM

QLWTALVSL
Kd (HLA-A*02:01; [7]): 1.61 nM
Kd (HLA-A*02:17; [7]): 79.7 nM

QPKPGTRMVM
Kd (HLA-B*35:01; [1]): 1230 nM
Kd (HLA-B*07:02; [1]): 8.33 nM

RASSGDSSF
Kd (HLA-B*15:03; [2]): 20.6 nM

REDQWCGSL
Kd (HLA-B*18:01; source organism: dengue virus type 1): 11600 nM
Kd (HLA-B*44:02): ≥ 20 µM

RQFYNANVL
Kd (HLA-B*15:03; [2]): 0.236 nM
Kd (HLA-A*32:01; [2]): 37.2 nM

RRWCFDGPR
Kd (HLA-B*48:01): ≥ 20 µM

SKVFFGPIY
Kd (HLA-B*15:03; [2]): 1.02 nM

SLNTLTISF
Kd (HLA-B*15:03; [2]): 475 nM

SPGTSGSPIV
Kd (HLA-B*07:02; [3]): 88.1 nM

SQVKCCHYF
Kd (HLA-B*15:01; [2]): 0.921 nM
Kd (HLA-B*15:03; [2]): 0.92 nM
Kd (HLA-A*32:01; [2]): 11400 nM
Kd (HLA-A*30:01): 80.6 nM
Kd (HLA-B*08:01): 7.24 µM

TLYAVATTFV
Kd (HLA-A*02:01; [3]): 12.6 nM
Kd (HLA-A*02:17; [3]): 490 nM
Kd (HLA-A*68:02; [3]): 11.5 nM
Kd (HLA-A*02:03; [3]): 2.65 nM

VEGLGLQKL
Kd (HLA-B*18:01; source organism: West Nile virus): 1280 nM

VSFNRVVIF
Kd (HLA-B*15:03; [8]): 1.05 nM
Kd (HLA-A*32:01; [8]): 559 nM

WLVHKQWFL
Kd (HLA-A*02:01; [1]): 3.99 nM
Kd (HLA-A*02:17; [1]): 15 nM
Kd (HLA-A*02:06; [6]): 93.4 nM

YAMCLNTFVL
Kd (HLA-A*02:01; [7]): 11.4 nM
Kd (HLA-A*02:17; [7]): 110 nM
Kd (HLA-B*35:01; source organism: Dengue virus 3 Singapore/8120/1995): 43.4 nM

YGVLFSGVSW
Kd (HLA-B*53:01; [6]): 261 nM
